In IntAct's records for PubMed 18787122:

B1: Secreted effector protein SifA (Salmonella typhimurium), Q56061 (parent)
chain: MPITIGNGFLKSEILTNSPRNTKEAWWKVLWEKIKDFFFSTGKAKADRCLHEMLFAERAPTRERLTEIFFELKELACASQRDRFQVHNPHENDATIILRIMDQNEENELLRITQNTDTFSCEVMGNLYFLMKDRPDILKSHPQMTAMIKRRYSEIVDYPLPSTLCLNPAGAPILSVPLDNIEGYLYTELRKGHLDGWKAQEKATYLAAKIQSGIEKTTRILHHANISESTQQNAFLETMAMCGLKQLEIPPPHTHIPIEKMVKEVLLADKTFQAFLVTDPSTSQSMLAEIVEAISDQVFHAIFRIDPQAIQKMAEEQLTTLHVRSEQQSGCLCCFL
partner: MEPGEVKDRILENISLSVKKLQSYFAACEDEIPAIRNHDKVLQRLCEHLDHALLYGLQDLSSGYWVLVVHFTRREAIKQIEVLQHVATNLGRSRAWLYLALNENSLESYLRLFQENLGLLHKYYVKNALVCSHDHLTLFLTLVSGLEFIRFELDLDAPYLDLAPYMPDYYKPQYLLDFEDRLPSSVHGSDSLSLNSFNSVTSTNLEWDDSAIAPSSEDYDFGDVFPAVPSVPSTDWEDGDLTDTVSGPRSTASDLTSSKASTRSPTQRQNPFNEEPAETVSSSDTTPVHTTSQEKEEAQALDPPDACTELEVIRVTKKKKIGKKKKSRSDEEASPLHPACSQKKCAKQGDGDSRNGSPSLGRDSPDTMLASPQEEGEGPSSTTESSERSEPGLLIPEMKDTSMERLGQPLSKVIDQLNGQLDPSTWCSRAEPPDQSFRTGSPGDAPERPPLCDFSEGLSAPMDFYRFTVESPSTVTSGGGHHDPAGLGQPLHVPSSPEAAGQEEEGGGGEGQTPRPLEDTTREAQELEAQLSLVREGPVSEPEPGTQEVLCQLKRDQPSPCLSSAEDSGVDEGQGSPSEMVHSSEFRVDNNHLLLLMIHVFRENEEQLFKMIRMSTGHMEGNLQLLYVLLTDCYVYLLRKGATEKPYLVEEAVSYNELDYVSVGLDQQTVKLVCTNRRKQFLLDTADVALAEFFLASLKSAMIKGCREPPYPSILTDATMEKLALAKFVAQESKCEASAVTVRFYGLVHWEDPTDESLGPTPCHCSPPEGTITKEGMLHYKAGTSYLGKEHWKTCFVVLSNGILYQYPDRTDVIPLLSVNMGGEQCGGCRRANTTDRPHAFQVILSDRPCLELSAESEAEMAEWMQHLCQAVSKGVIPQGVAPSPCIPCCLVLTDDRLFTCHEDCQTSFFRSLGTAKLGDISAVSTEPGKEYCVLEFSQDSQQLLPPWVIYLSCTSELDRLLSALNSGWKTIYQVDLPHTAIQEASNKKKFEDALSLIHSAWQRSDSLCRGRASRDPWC

Variants of: B1
Conditions: with pkhm2_human PLEKHM2, Q8IWE5

Variant	effect of a mutation on the interaction
MPITIGNGFLKSEILTNSPRNTKEAWWKVLWEKIKDFFFSTGKAKADRCLHEMLFAERAPTRERLTEIFFELKELACASQRDRFQVHNPHENDATIILRIMDQNEENELLRITQNTDTFSCEVMGNLYFLMKDRPDILKSHPQMTAMIKRRYSEIVDYPLPSTLCLNPAGAPILSVPLDNIEGYLYTELRKGHLDGAKAQAKATYLAAKIQSGIEKTTRILHHANISESTQQNAFLETMAMCGLKQLEIPPPHTHIPIEKMVKEVLLADKTFQAFLVTDPSTSQSMLAEIVEAISDQVFHAIFRIDPQAIQKMAEEQLTTLHVRSEQQSGCLCCFL [W197A;E201A]	decreasing interaction
